From the supplement of paper PMC10724198
± gives the standard deviation of the averaged measurements.

These sequences were tested on Saccharomyces cerevisiae (assay: protein stability index of tFT-peptide fusion (C-terminal peptide) (PSI (0-1 scale)); higher = more stable (slower turnover)). Settings: genetic background: wild type; temperature: 30 C.
Experimental: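 Multiplexed protein stability (MPS) profiling in S. cerevisiae. Random 12-aa peptides (tFT-X12 library) are fused to the C-terminus of a sfGFP-mCherry tandem fluorescent timer, after mCherry and a GGGS linker. Cells are FACS-sorted into 8 mCherry/sfGFP bins and deep-sequenced. The protein stability index (PSI) is the read-weighted bin average, scaled from 0 (unstable) to 1 (stable). Only peptides with >10 reads are reported; cells were grown at 30 °C in SC-His with glucose.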
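Further: PSI is a weighted mean of sequencing reads over stability bins, variants kept only with over 10 reads, mCherry proximal and sfGFP distal, peptide attached via GGGS linker.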

In order of falling protein stability index:
1. FVDWGLFAFGCL  0.796 ± 0.062
2. GCRPFLLKSQTF  0.777 ± 0.11
3. FVKRFSNGGVKT  0.775 ± 0.027
4. FVGRWSSRSRGH  0.768 ± 0.022
5. GAPPPPPARGDL  0.764 ± 0.03
6. FVLWFTSSGCSN  0.7598 ± 0.0039
7. FVWRVGGVRRGV  0.758 ± 0.09
8. GDCYLCSACEWW  0.753 ± 0.016
9. FVGGNEGSYWAS  0.751 ± 0.035
10. FVQEQGAKNNRH  0.746 ± 0.015
11. GCGSGGLGGWRW  0.746 ± 0.18
12. FSLPSRAPLPRF  0.735 ± 0.13
13. GAFRLGSIVGVP  0.735 ± 0.032
14. FSFIPIRRYPVM  0.733 ± 0.15
15. GAFLGSPWAAAS  0.731 ± 0.04
16. FSPTPSRLSCDR  0.728 ± 0.027
17. FVRCLFSSGCFF  0.728 ± 0.013
18. GCRSYRVFSGMI  0.727 ± 0.12
19. FYGFHPLALPRP  0.725 ± 0.035
20. GAPAWMLLYSAS  0.723 ± 0.029
21. GARPRSGVRGGT  0.723 ± 0.022
22. GCGDIFAEQLLL  0.7227 ± 0.0041
23. FWRPIPQSPLPQ  0.7203 ± 0.002
24. FVPPPVVPPFPL  0.716 ± 0.017
25. GAGVSELCGAGW  0.713 ± 0.11
26. GAAPRWSGDRRW  0.71 ± 0.06
27. GCPGGGRPGPRA  0.7052 ± 0.0064
28. FVAPPLCMPLSR  0.704 ± 0.04
29. FSPVSSFTLTLS  0.701 ± 0.11
30. GDDCQYLVVPVR  0.701 ± 0.052
31. FVPMDFILKFSR  0.699 ± 0.033
32. GCEVRTFMNSSG  0.697 ± 0.016
33. FSACSGSHVEVW  0.695 ± 0.037
34. GCWGRVLCGGSV  0.695 ± 0.026
35. GAVTWGGAGVGV  0.694 ± 0.022
36. FVGAYGRLCCMS  0.69 ± 0.031
37. GAGAQRGCRSGG  0.6878 ± 0.0034
38. FSHLRASFADAA  0.687 ± 0.045
39. GACFLGGRLCGR  0.686 ± 0.024
40. GCRLFGLMFFDA  0.682 ± 0.063
41. GAPKRLSISLSS  0.681 ± 0.019
42. GARCHSKVTNAS  0.681 ± 0.036
43. FSLSLACPPPHS  0.679 ± 0.19
44. FSLWPVRFVVDR  0.679 ± 0.041
45. FSSPSFRSSLLL  0.679 ± 0.015
46. FSGFRFFLLWPW  0.678 ± 0.085
47. GAHVAVFRQRGR  0.678 ± 0.083
48. GCGRLWAGIGRR  0.678 ± 0.023
49. GAWCSTGENDTA  0.677 ± 0.059
50. FSLCFSSFSLFP  0.676 ± 0.016
51. FVFGVCGGGGIG  0.671 ± 0.11
52. FTISALSSTPRP  0.669 ± 0.042
53. GALYAGWRGPTC  0.669 ± 0.031
54. FSFFVESFPASF  0.668 ± 0.036
55. GAGGVGVTSGGK  0.668 ± 0.056
56. FYMCYFSCSRSL  0.667 ± 0.0086
57. GAVGGGSAADPE  0.667 ± 0.11
58. FSNLVSAHFGLL  0.666 ± 0.042
59. GAATKRKYTINT  0.665 ± 0.013
60. FSILYLLPPGPL  0.663 ± 0.092
61. FYKKKIRRGVNV  0.661 ± 0.038
62. FSKTLCGCQITC  0.658 ± 0.037
63. FVCRRDIMSGIF  0.6565 ± 0.0052
64. GACILARGVRRR  0.656 ± 0.014
65. GCAVLGCLVLSA  0.655 ± 0.088
66. GCGGRTAAWGGG  0.655 ± 0.024
67. GAVGLARVSASN  0.653 ± 0.028
68. GAVLELCRADGG  0.651 ± 0.0082
69. FVRAVLRLSSVF  0.645 ± 0.052
70. FSLSRWFDEIAL  0.6438 ± 0.00075
71. GCGVWRVLRVLR  0.642 ± 0.027
72. GAAIRVNRCGEG  0.64136 ± 0.00011
73. GCRSFRNYKIGV  0.641 ± 0.018
74. GAASHLERGQVP  0.634 ± 0.089
75. GCRGRCVMPVCG  0.634 ± 0.051
76. GARGWTVWVAGL  0.632 ± 0.049
77. GCVDRSSHNALC  0.632 ± 0.037
78. FTVRSPSCISAE  0.631 ± 0.017
79. FSLPFLFCRPLS  0.6279 ± 0.0042
80. FTARAGRLQSVF  0.627 ± 0.0097
81. FVSSSVFFVFSF  0.627 ± 0.058
82. FVLATGVLLQQG  0.623 ± 0.024
83. FSSTSAPPRSAP  0.621 ± 0.0078
84. FVIWGCGVRSWC  0.618 ± 0.033
85. GARGCSATGPPG  0.61 ± 0.02
86. FWGGRGGVGLAV  0.601 ± 0.1
87. FSRFWVSGGVVC  0.599 ± 0.0082
88. GACPAFPYSVGR  0.595 ± 0.018
89. FVRGGWAVMLGG  0.58 ± 0.049
90. FYVCVIQNMYML  0.579 ± 0.043
91. FTCSAIIHVCGL  0.571 ± 0.035
92. GCVVSIICGGRA  0.5639 ± 0.0013
93. FSIFFFSFFSCF  0.563 ± 0.039
94. FTLYLASVHFTR  0.56 ± 0.044
95. FVALWVGCCWLG  0.542 ± 0.011
96. FVVVVVGGGWGG  0.516 ± 0.0068
97. FVILTPFYLTFH  0.51 ± 0.033
98. FVSWNLPLAFAF  0.499 ± 0.017
